Assay results as given in patent publication US20220332829A1 (NANJING SANHOME PHARMACEUTICAL, published 2022).
Numbering of substitutions follows the chain as printed. Values belong to the binder of their own block, whether it stands above or below them.

Tests used:
[1] = target: T1, B7-H3 on surface of tumor cell (786-0, MDA-MB-231, Raji-B7-H3 cells) (human, UniProt Q5ZPR3 29-534); assay: cell-based or functional assay
T1 sequence (looked up): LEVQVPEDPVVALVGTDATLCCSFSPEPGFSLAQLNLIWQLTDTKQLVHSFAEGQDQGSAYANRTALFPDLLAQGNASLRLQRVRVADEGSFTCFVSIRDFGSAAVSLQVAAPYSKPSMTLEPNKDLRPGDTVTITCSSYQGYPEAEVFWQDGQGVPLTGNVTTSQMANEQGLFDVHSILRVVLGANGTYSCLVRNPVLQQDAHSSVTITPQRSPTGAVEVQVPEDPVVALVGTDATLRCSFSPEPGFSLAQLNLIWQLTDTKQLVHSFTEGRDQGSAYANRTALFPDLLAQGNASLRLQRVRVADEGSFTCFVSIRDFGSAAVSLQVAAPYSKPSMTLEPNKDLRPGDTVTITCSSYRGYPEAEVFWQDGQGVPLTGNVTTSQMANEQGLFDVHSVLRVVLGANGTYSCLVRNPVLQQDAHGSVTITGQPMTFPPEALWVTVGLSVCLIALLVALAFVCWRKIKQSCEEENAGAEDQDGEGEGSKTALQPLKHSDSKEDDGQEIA

[2] = target: T2, human 4Ig-B7-H3-His protein (human, UniProt Q5ZPR3 29-466); assay: Biacore X100 SPR, 4Ig-B7-H3-His coupled to CM5 chip, antibody injected
T2 construct: also called human B7-H3 protein
T2 sequence: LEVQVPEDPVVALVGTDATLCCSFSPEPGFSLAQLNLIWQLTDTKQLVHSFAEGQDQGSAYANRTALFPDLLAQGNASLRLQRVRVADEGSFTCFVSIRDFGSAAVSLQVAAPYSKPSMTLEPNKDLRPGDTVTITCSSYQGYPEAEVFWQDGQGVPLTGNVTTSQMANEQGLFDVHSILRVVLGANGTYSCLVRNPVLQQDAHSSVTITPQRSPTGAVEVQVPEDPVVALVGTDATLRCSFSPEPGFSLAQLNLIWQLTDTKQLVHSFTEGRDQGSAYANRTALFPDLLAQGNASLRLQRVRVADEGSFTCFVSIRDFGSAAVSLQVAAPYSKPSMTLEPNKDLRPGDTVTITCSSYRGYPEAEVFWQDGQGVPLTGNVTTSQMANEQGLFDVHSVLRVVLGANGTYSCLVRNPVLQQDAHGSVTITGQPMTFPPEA
Excerpt: The humanized anti-B7-H3 antibodies prepared in Example 4 were subjected to affinity assay by Biacore. The antigen 4Ig-B7-H3-His was first coupled to the surface of a CM5 chip (GE, Cat. No. BR100012), and the active groups of the uncoupled protein were blocked with ethanolamine. After the baseline was stable, the hu39-01, hu65-13, and hBRCA84D antibodies were respectively diluted in equal proportions. The diluted antibodies of each concentration were placed on the sample injection tray of the instrument in sequence, and the program was set to inject samples respectively.

[3] = target: T1, B7-H3 on surface of tumor cell (786-0, …); assay: FACS on 786-0 cells
Protocol: (§1) The binding activity of antibodies to B7-H3 on the surface of tumor cells was analyzed by FACS. Mean fluorescence intensity (MFI) and EC₅₀ detected by FACS indicate the binding activity of the antibody to cells. After 786-0 and MDA-MB-231 cells were digested, they were resuspended in 2% FBS-PBS solution and counted. After raji-B7-H3 cells were collected, they were resuspended in 2% FBS-PBS and counted. The above cells were plated in a cell plate with 1×10⁵ cells per well. The anti-B7-H3 antibody of the present disclosure was used as the primary antibody and added to cell plates in gradient dilution starting from 20 μg/mL with a total of 8 concentrations: 20,000 ng/mL, […], 2,000 ng/mL, 400 ng/mL, 80 ng/mL, 16 ng/mL, 3.2 ng/mL, and 0.64 ng/mL respectively. The plates were incubated at 4° C. for 1 h with hBRCA84D as the positive control antibody. PE-Anti-Human IgG (Biolegend, Cat. No. 409303, 1.25 μl/well) was used as the secondary antibody, washed, and detected for the fluorescence intensity generated by the binding of the antibody to the cell surface by a flow cytometer.

[4] = target: T1, B7-H3 on surface of tumor cell (786-0, …); assay: FACS on Raji-B7-H3 cells
Protocol: as §1

[5] = target: T1, B7-H3 on surface of tumor cell (786-0, …); assay: FACS on MDA-MB-231 cells
Protocol: as §1

- EC50 Ratio (ADCC, LDH method; EC50 of hBRCA84D divided by EC50 of the antibody; 786-0 target cells, human PBMC effectors) [1]: 20.1
B1: SHS007-17-CHI (antibody, human IgG1, V domains shown)
VH: QVHLQQSGPELVKPGASVKMSCKASGFTFTDYVVSWVKQRTGQGLEWIGEIYPGGGFIHYNEKFKGKATLTADKSSNTAYMQLTSLTSEDSAVYFCARFPKYYFDYWGQGTTLTVSS
VL: DVVMTQTPLSLPVSLGDQASISCRSSQSIVHSNRYTYLEWYLQKPGQSLKLLIYGVSNRFSGVPDRFSGSGSGTDFTLKISRVEAEDMGVYYCFQSTLFPWTFGGGTKLEIK

- EC50 Ratio (ADCC, LDH method; EC50 of hBRCA84D divided by EC50 of the antibody; 786-0 target cells, human PBMC effectors) [1]: 212
B2: SHS007-39-CHI (antibody, human IgG1, V domains shown)
VH: EVQLQQSGPELVKPGASVKISCKTSGYTFTEYTIHWMKQSHGKSLEWIGGLNPNTGGTTYNQKFKDKATLTVDKSSSTAYMALRSLTSEDSAVYYCARKGGWFFLDYWGQGTTLIVSS
VL: QIVLTQSPAIMSASPREKVTMTCSASSSVSYMHWYQQKSGTSPKRWIYDTSKLASGVPARFRGSGSGTSYSLTISNMEAEDAATYYCQQWSSNPPTFGGGTKVEIK

- EC50 Ratio (ADCC, LDH method; EC50 of hBRCA84D divided by EC50 of the antibody; 786-0 target cells, human PBMC effectors) [1]: 18.6
B3: SHS007-65-CHI (antibody, human IgG1, V domains shown)
VH: EVQLVESGGGLVKPGGSLKLSCAASGFTFSDYGIHWVRQAPEKGLEWVAYISSGSNTIYYADTVKGRFTISRDNAKNTLFLQMTSLRSEDTAIYYCATMVTRWFYYAMDYWGQGTSVTVSS
VL: B2 VL with R16G, H33Y, R62S, S75N, G99A, V103L, I105L

- EC50 Ratio (ADCC, LDH method; EC50 of hBRCA84D divided by EC50 of the antibody; 786-0 target cells, human PBMC effectors) [1]: 4.4
B4: SHS007-59-CHI (antibody, V domains shown)
VH: EVQLQQSGPELVKPGTSVKIPCKASGYTFTDYHMDWVKQSHGKSLEWIGDINPNNGGTIYNQKFKGKATLTVDKSSSTAYMELRGLTSEDTAVYYCARGGLHDYWGPGTTLTVSS
VL: DIVMTQSQKFMSTKVGDRVSITCKASQSVGTAVAWYQQKPGQSPKLLIYSTSNRYTGVPDRFTNNASGTDFTLTISNVQSADLADYFCQQYGNYPLTFGGGTKLEIK

- EC50 Ratio (ADCC, LDH method; EC50 of hBRCA84D divided by EC50 of the antibody; 786-0 target cells, human PBMC effectors) [1]: 6.6
B5: SHS007-51-CHI (antibody, V domains shown)
VH: EVQLVESGGDSVKPGGSLKLSCAASGFTFSSFGMSWVRQTPDKRLEWVATINSGDNYSYSPDSVKGRFTISRDNAKNILYLQMSSLKSEDTAMYYCARPHIFYYGSPAWFAYWGQGTLVTVSA
VL: DVVMTQTPLSLPVSLGDQASVSCRSRQSLVHSNGNTYLHWYLQRPGQSPKLLIYKVSNRFSGVPDRFSGSGSGTDFTLKISRVEAEDLGVYFCSQSTHVPLTFGAGTKLELK

- Kd [2]: 0.198 nM
- koff [2]: 1.89e-05 s⁻¹
- kon [2]: 95400 M⁻¹ s⁻¹
- EC50 [3]: 0.266 µg/mL
- Mean fluorescence intensity (MFI) [3]: 566000
- EC50 [4]: 0.266 µg/mL
- Mean fluorescence intensity (MFI) [4]: 566000
- EC50 [5]: 0.14 µg/mL
- Mean fluorescence intensity (MFI) [5]: 151000
B6: hu65-13 (antibody, human IgG1, V domains shown)
VH: B3 VH with K13Q, K19R, E42G, A49S, T78S, F80Y, T84N, S88A, I93V, S116T
VL: EIVLTQSPATLSLSPGERATLSCSASSSVSYMYWYQQKPGQAPRRLIYDTSKLASGVPARFSGSGSGTDYTLTISSLEPEDFAVYYCQQWSSNPPTFGQGTKLEIK
notes: expressed in HEK293E; also called humanized anti-B7-H3 antibody hu65-13

- EC50 Ratio (ADCC, LDH method; EC50 of hBRCA84D divided by EC50 of the antibody; 786-0 target cells, human PBMC effectors) [1]: 7.1
B7: SHS007-72-CHI (antibody, V domains shown)
VH: QVQLVQSGPELKKPGETVKISCKASGYTFTNYGMYWVKQAPGEGLKWMGWINTHTGEPTYGDDFKGRFAFSLETPATIAFLEISILKNEDTATYFCARKSFGDFIYAMDFWGQGTSVTVSS
VL: DIQMTQTTSSLSASLGDRVTISCRASQDIGKYLNWYQQKPDGTVKLLIYYTSRLHLGVPSRFSGSGSGTDFSLTISNLEQEDTATYFCQQGTTLPPTFGGGTKVEIK

- EC50 Ratio (ADCC, LDH method; EC50 of hBRCA84D divided by EC50 of the antibody; 786-0 target cells, human PBMC effectors) [1]: 11.4
B8: SHS007-95-CHI (antibody, V domains shown)
VH: EVKLVESGGELVKPGGSLKLSCAASGFTLSSYVMSWVRQTPEKRLEWVAAISRYGDPTNFPDNMRDRFTISRDNAKNTLSLQMSSLRSEDTALYFCARHHFDGTSWYFDVWGPGTTVTVSS
VL: EIVLTQSPALMAASPGERVTITCSVSSSISSIDLHWYQQKSGTFPKLWIYGTSNLASGVPVRFSGSGSGTSYSLTISTMEAEDAATYYCQQWSSFPLTFGSGTKLEIK
